In the nanobody polyreactivity screen of Harvey et al. (2022):

Assay: yeast display, Sf9 membrane polyspecificity reagent, FACS + sequencing; frameworks hold sequencing errors
In short: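 A nanobody's polyreactivity label depends on the gate it was sorted from. Yeast display cells were stained with 10% biotinylated, detergent-solubilized Sf9 membrane reagent for 1 hour at 4 °C, enriched on streptavidin microbeads and sorted by FACS. The low and high (top ~1%) gates were set on anti-HA fluorescence for expression and streptavidin fluorescence for reagent binding.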
With “QVQLVESGGVLVQAGGSLRLSCAASGNAMGWYRQAPGKERELVAAITRRGGSTYYADSVKGRFTISRDNAKNTVYLQINSLIPEDTAVYYCAADNPSYNLWYGYWGQGTQVTVSS” the “polyreactivity (PSR sort gate)” value was “low polyreactivity”.
For “QVQLVESGGVLVQAGGSLRLSCAASGRIFPGYVMGWYRQAHGKERELVAAITRGGSTYYADSVKGRFTISRDNAKNTVYLQMNSLKPEDTAVYYCAAKHSHIHYNYWGQGTQVTVSS”, the “polyreactivity (PSR sort gate)” value was “low polyreactivity”.
In the case of “QVQLVESGGVLVQAGGSLRLSCAASGRIFPSYDMGWYRQAPAKERELVDTISTRGDSTYYADSVKGRFTISRDNAKNTVYLQMNSQKPEDTAVYYCAAERPFWEYDYWGQGTQVTVSS”, the “polyreactivity (PSR sort gate)” value is reported as “low polyreactivity”.
In the case of “QVQLVESGGVLVQAGGSLRLSCAASGRIFRANTMGWYRQAPGKEMELVANISKNGGRTYYADSVKGRFTISRDNAKNTVYLQMNSLKPEDTAVYYFNAEWRGWRFLEYGSYIYQSGYWGQGTQVTVSS”, the “polyreactivity (PSR sort gate)” value is reported as “high polyreactivity”.
In the case of “QVQLVESGGVLVQAGGSLRLSCAASGRIFRYNTMGWDRQAPGKERELVATITRGSSTNYADSVKGRFTISRDNAKNTVYLQMNSLKPEDTAVYYCAASVWKWHSYLGRYSYIGYDYWGQGTQVTVSS”, the “polyreactivity (PSR sort gate)” value is reported as “high polyreactivity”.
For “QVQLVESGGVLVQAGGSLRLSCAASGRIIDLNAMGWYREAPGKQRDFVAGITDGGSTYYADSVKGRFTISRDNAKNTVYLQMNSLKPEDTAVDYCAADVYDYLSEFQAFVEEAGYYWGQGTQVTVSS”, the “polyreactivity (PSR sort gate)” value was “low polyreactivity”.
In the case of “QVQLVESGGVLVQAGGSLRLSCAASGRTFHDYAMGWYRQAPGKERELVASISSGGSTYYADSVKGRFTISRDNAKNTDYLQMNSLKPEDTAVYYCAAYYYYTLYYRYDYWGQGTQVNVSS”, the “polyreactivity (PSR sort gate)” value is reported as “low polyreactivity”.
For “QVQLVESGGVLVQAGGSLRLSCAASGSIFDKAMGWSRQAPGKERELVSAITSGGITNYADSVKGRFTISRDNAKNTVYLQMNRLKPEDCAVYYCNTLSPTQTKYDYWGQGTQVSVSS”, the “polyreactivity (PSR sort gate)” value was “low polyreactivity”.
With “QVQLVESGGVLVQAGGSLRLSCAASGSIFFYYAMGWYRQAPGKERELVAAITFTGGSTYYADSVKGRFTISRDNAKNTVYLQMKSLKPEDTAVYYCAADWYYGDEYEYWGQGTQVTVSS” the “polyreactivity (PSR sort gate)” value was “high polyreactivity”.
In the case of “QVQLVESGGVLVQAGGSLRLSCAASGSIFNYYAMGWYRQAPGKERELVAGITTSGGSTYYADSVKARFTISRDNEKNSVYLQMNSLTPEDTAVYYCAAYDYISSTYFLDDYWGQGTQVTVSS”, the “polyreactivity (PSR sort gate)” value is reported as “low polyreactivity”.
In the case of “QVQLVESGGVLVQAGGSLRLSCAASGSIFSAYVMGWYRQAPGKERELVAAINRGGNTYYADSVKGRFTISRDNAKNTVYLQMNSLKPEDTAVYYCNAQWYYLRYRYDYWGQGTQVTVSS”, the “polyreactivity (PSR sort gate)” value is reported as “high polyreactivity”.
In the case of “QVQLVESGGVLVQAGGSLRLSCAASGSTFVTNAMGWYRQAPGKEREFVAAISNSSGSTYYADSVKGRFTISRDNAKNTVYLQMNSLKPEDTAVYYCNATPDDWLQEDYWGQGTQVTVSS”, the “polyreactivity (PSR sort gate)” value is reported as “low polyreactivity”.
For “QVQLVESGGVLVQAGGSLRLSCAASGSTFVYNAMGWYRQAPGKERELVARISWSVTDTYYADSVKGRFTISRDNAKNTVYLQMNSLKPEDTAVYYCNTDVTYSHLVFGYDYWGQGTQVTVSS”, the “polyreactivity (PSR sort gate)” value was “low polyreactivity”.
For “QVQLVESGGVLVQAGGSLRLSCAASGSTFWLYAMGWNRQAPRKERELVAAITRSGGRTNYADSVKGRFTISRDNAKNTVYLQMNSLKPEDTAVYYCAAEYLGVSYNNWAYDFWGQGTQVTVSS”, the “polyreactivity (PSR sort gate)” value was “low polyreactivity”.
For “QVQLVESGGVLVQAGGSLRLSCAASGSTFYGYAMGWYRQAPAKERELVAAITRSGGSTYYADSVKGRFTISRDNAKNTVYLQMNSLKPEDTAVYYCARQDRDTYYHRYYYGGQGTQVTVSS”, the “polyreactivity (PSR sort gate)” value was “high polyreactivity”.
With “QVQLVESGGVLVQAGGSLRLSCAASGSTSDCYDMGWYRQAPGKEWELVAAISTGDGITYYADSVKGRFTISRDNAKNTVYLHMNRLKPEDTAVYYCAAEVELSGGSDYWGQGTQVTVSS” the “polyreactivity (PSR sort gate)” value was “low polyreactivity”.
In the case of “QVQLVESGGVLVQAGGSLRLSCASSGSIFYIYGMGWSRQAPWKERELVARISSGDRTNYADSVKGRFTISRDNAKNRVYLQMNSRNPDDTAVYYCAAKKRKIAGVGGDYWGQGTQVTVSS”, the “polyreactivity (PSR sort gate)” value is reported as “high polyreactivity”.
